Data taken from US20060053496A1 (UNIVERSITY OF NORTH CAROLINA AT CHAPEL HILL, published 2006).

Target: T1, FLAG-tagged Monarch-1 (human, UniProt P59046 1-1061)
T1 construct: Expressed in transfected 293T cells and immunoprecipitated from lysate with anti-FLAG M2-agarose; also called FLAG-Monarch-1; Caterpiller 19.3; not shown: N-terminal FLAG tag added by PCR
T1 sequence: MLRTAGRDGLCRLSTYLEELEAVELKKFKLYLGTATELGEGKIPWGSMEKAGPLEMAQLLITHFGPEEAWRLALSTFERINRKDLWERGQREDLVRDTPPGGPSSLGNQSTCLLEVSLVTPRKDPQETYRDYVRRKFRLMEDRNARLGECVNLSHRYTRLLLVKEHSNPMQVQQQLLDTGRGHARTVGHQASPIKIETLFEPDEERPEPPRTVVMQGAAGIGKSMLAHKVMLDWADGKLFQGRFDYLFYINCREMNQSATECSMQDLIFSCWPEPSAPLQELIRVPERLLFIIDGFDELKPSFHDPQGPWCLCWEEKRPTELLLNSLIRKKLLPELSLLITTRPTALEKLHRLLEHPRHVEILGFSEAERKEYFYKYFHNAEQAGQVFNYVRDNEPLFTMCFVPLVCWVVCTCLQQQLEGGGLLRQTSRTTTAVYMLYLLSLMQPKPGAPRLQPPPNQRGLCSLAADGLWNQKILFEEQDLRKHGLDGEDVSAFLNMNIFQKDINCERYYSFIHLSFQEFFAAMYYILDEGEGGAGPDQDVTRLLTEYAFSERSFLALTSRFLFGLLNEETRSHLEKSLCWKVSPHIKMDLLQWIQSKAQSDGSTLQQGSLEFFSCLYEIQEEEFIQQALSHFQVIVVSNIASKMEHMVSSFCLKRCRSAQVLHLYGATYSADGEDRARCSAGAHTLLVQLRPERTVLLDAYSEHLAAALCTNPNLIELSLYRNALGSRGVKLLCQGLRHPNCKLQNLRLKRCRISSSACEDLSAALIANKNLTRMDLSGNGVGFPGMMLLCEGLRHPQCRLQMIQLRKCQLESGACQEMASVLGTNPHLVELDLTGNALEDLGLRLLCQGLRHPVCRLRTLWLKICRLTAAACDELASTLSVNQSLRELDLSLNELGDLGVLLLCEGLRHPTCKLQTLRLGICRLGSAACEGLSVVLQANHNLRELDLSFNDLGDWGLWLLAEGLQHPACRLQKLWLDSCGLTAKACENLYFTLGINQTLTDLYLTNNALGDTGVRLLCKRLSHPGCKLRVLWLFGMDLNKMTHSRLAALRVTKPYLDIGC
Test: co-immunoprecipitation from transfected 293T cells (anti-FLAG M2-agarose IP, anti-HA western blot)
Description: Transfections and Immunoprecipitations. 2.5 million 293T cells were seeded in 10-cm cell culture plates. Eighteen to twenty-four hours later, 3 μg of each of the indicated plasmids was transfected using FUGENE6™ (Roche, Indianapolis, Ind.) at a 3:1 FUGENE6™ to DNA ratio and the cells were incubated an additional 18 to 24 hours. Cells were lysed in 0.5% NP-40, 150 mM NaCl, 50 mM Tris pH 8.0, 160 mM EDTA, 50 mM NaF, 10 mM sodium phosphate supplemented with protease inhibitor cocktail (Roche, Indianapolis, Ind.). Nuclei were removed and the resulting supernatant was pre-cleared with mouse IgG-conjugated agarose (Sigma, St. Louis) for 1 hour. FLAG®-tagged proteins were subsequently immunoprecipitated overnight with 35 μl M2-agarose equilibrated in lysis buffer. Beads were washed four times in lysis buffer and proteins eluted in sample buffer (20% Glycerol, 4% SDS, 130 mM Tris pH 6.8, 20 mM DTT) for western blot analysis.
Monarch-1 Associates with TRAF6 but not MyD88 or IRAK1. In addition to the proteins identified by MALDI-MS, 293T cells were transfected with Monarch-1 cDNA and one of the following: HA-MyD88, HA-TRAF6, or HA-IRAK1. Twenty-four hours later the cells were lysed and Monarch-1-containing protein complexes were immunoprecipitated with anti-FLAG® M2-agarose beads overnight. […]

binding result: no binding
B1: HA-IRAK1 (enzyme, human, UniProt P51617 1-712, looked up)
chain: MAGGPGPGEPAAPGAQHFLYEVPPWVMCRFYKVMDALEPADWCQFAALIVRDQTELRLCERSGQRTASVLWPWINRNARVADLVHILTHLQLLRARDIITAWHPPAPLPSPGTTAPRPSSIPAPAEAEAWSPRKLPSSASTFLSPAFPGSQTHSGPELGLVPSPASLWPPPPSPAPSSTKPGPESSVSLLQGARPFPFCWPLCEISRGTHNFSEELKIGEGGFGCVYRAVMRNTVYAVKRLKENADLEWTAVKQSFLTEVEQLSRFRHPNIVDFAGYCAQNGFYCLVYGFLPNGSLEDRLHCQTQACPPLSWPQRLDILLGTARAIQFLHQDSPSLIHGDIKSSNVLLDERLTPKLGDFGLARFSRFAGSSPSQSSMVARTQTVRGTLAYLPEEYIKTGRLAVDTDTFSFGVVVLETLAGQRAVKTHGARTKYLKDLVEEEAEEAGVALRSTQSTLQAGLAADAWAAPIAMQIYKKHLDPRPGPCPPELGLGLGQLACCCLHRRAKRRPPMTQVYERLEKLQAVVAGVPGHSEAASCIPPSPQENSYVSSTGRAHSGAAPWQPLAAPSGASAQAAEQLQRGPNQPVESDESLGGLSAALRSWHLTPSCPLDPAPLREAGCPQGDTAGESSWGSGPGSRPTAVEGLALGSSASSSSEPPQIIINPARQKMVQKLALYEDGALDSLQLLSSSSLPGLGLEQDRQGPEESDEFQS
notes: not shown: double 5' (N-terminal) HA tag
